Assay results from US20140094417A1.

Molecular target: CD22 (UniProt P20273)
Assay: cell-based or functional assay

Chain of UniProt P20273 (P20273 20-847 limits assumed): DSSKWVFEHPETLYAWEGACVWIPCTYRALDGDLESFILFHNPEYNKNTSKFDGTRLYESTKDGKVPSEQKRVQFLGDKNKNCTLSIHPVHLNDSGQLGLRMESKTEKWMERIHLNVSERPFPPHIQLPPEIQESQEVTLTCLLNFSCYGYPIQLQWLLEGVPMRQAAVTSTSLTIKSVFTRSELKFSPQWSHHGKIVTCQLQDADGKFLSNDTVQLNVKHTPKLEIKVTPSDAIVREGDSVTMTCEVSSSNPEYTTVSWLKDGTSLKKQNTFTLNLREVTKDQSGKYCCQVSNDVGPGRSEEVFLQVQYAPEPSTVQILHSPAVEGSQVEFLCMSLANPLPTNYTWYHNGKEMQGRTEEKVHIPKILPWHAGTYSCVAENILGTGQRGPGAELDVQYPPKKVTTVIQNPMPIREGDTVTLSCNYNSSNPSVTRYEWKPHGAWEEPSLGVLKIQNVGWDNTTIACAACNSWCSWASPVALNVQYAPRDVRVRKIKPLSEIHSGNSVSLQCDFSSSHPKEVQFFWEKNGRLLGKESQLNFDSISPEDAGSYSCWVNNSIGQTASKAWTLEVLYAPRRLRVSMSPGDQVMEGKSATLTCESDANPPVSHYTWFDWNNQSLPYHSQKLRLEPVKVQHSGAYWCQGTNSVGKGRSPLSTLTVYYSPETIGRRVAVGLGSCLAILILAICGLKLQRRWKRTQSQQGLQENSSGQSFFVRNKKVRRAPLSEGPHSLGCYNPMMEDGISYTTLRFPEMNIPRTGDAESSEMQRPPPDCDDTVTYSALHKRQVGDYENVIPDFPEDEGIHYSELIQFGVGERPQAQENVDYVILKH

Substance | IC50 (ng/ml), cytotoxic activity on CA46 [ng/mL] | IC50 (ng/ml), cytotoxic activity on Daudi [ng/mL] | IC50 (ng/ml), cytotoxic activity on Raji [ng/mL] | activity on CA46 relative to HA22-LR [%] | activity on Daudi relative to HA22-LR [%] | activity on Raji relative to HA22-LR [%]
HA22-LO10 | 0.38 | 0.3 | 1.5 | 29 | 60 | 27
HA22-LR | 0.11 | 0.18 | 0.41 |  |  | 
